Data on 25 molecules can be found in patent US20190352423A1 (Genmab, published 2019).

Where a chain is given by its changes, count along the chain named. Names and notes keep the numbering of the source.

The labels stand for the following.
T1: recombinant human CD63 second extracellular domain (Ala 103-Val 203) fused with a polyhistidine tag at the … (human, UniProt P08962 103-203)
T1 construct: range 103-203; Bought from Creative BioMart; also called human His-tagged CD63; soluble CD63
T1 sequence (looked up): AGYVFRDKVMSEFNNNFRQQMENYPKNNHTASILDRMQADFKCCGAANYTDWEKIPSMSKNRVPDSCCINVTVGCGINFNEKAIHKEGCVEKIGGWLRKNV

B1: bsHER2xCD63-Duo3 with CD63 variant P72H (bispecific antibody, part only; not given: HER2 arm (IgG1-153) VH and VL, V domains shown, part only)
VH: EVQLQQSGPELVKPGASVKMSCKASGYTFTSYVMHWVRQTPGQGLEWIGYITHYNDGTKYNEKFKGKATLTSDKSSSTAYMELSSLTSEDSAVYYCVGGDNYYYAMDYWGQGTSVTVSAA
VL: NIMVTQSPSSLAVSAGEKVTMSCKSSQSVLYSSNQKNYLAWYQQKPGQSPKLLIYWASTRVSGVPDRFTGSGSGTDFTLTISRVQAEDLAVYYCHQYFSSFTFGSGTKLEIKRT
B2: bsCD63xb12-Duo3 with CD63 variant Y121H (bispecific antibody, part only; not given: b12 control arm VH and VL, V domains shown, part only)
VH: B1 VH with H53P, Y102H
VL: B1 VL
B3: bsHER2xCD63-Duo3 with CD63 variant LN54H (bispecific antibody, part only; not given: HER2 arm (IgG1-153) VH and VL, V domains shown, part only)
VH: B1 VH with H53P
VL: B1 VL with N34H
B4: bsHER2xCD63-Duo3 with CD63 variant LY51H (bispecific antibody, part only; not given: HER2 arm (IgG1-153) VH and VL, V domains shown, part only)
VH: B1 VH with H53P
VL: B1 VL with Y31H
B5: bsCD63xb12-Duo3 with CD63 variant G76H (bispecific antibody, part only; not given: b12 control arm VH and VL, V domains shown, part only)
VH: B1 VH with H53P, G57H
VL: B1 VL
B6: bsHER2xCD63-Duo3 with CD63 variant LV49H (bispecific antibody, part only; not given: HER2 arm (IgG1-153) VH and VL, V domains shown, part only)
VH: B1 VH with H53P
VL: B1 VL with V29H
B7: bsCD63xb12-Duo3 with CD63 variant LY51H (bispecific antibody, part only; not given: b12 control arm VH and VL, V domains shown, part only)
VH: B1 VH with H53P
VL: B1 VL with Y31H
B8: bsHER2xCD63N74H-Duo3 (bispecific antibody, part only; not given: HER2 arm, V domains shown, part only)
VH: B1 VH with H53P, N55H
VL: B1 VL
B9: bsCD63N74Hxb12-Duo3 (bispecific antibody, part only; not given: b12 control arm, V domains shown, part only)
VH: B1 VH with H53P, N55H
VL: B1 VL
B10: bsCD63xb12-Duo3 with CD63 variant LV49H (bispecific antibody, part only; not given: b12 control arm, V domains shown, part only)
VH: B1 VH with H53P
VL: B1 VL with V29H
B11: bsHER2xCD63-Duo3 with CD63 variant G76H (bispecific antibody, part only; not given: HER2 arm (IgG1-153) VH and VL, V domains shown, part only)
VH: B1 VH with H53P, G57H
VL: B1 VL
B12: bsHER2xCD63-Duo3 with CD63 variant Y121H (bispecific antibody, part only; not given: HER2 arm, V domains shown, part only)
VH: B1 VH with H53P, Y102H
VL: B1 VL
B13: bsCD63xb12-Duo3 with CD63 variant LN54H (bispecific antibody, part only; not given: b12 control arm VH and VL, V domains shown, part only)
VH: B1 VH with H53P
VL: B1 VL with N34H
B14: IgG1-CD63 affinity variant G76H (antibody, V domains shown)
VH: EVQLQQSGPELVKPGASVKMSCKASGYTFTSYVMHWVRQTPGQGLEWIGYITPYNDHTKYNEKFKGKATLTSDKSSSTAYMELSSLTSEDSAVYYCVGGDNYYYAMDYWGQGTSVTVSA
VL: NIMVTQSPSSLAVSAGEKVTMSCKSSQSVLYSSNQKNYLAWYQQKPGQSPKLLIYWASTRVSGVPDRFTGSGSGTDFTLTISRVQAEDLAVYYCHQYFSSFTFGSGTKLEIKR
notes: As m1 with one histidine substitution
B15: IgG1-CD63 affinity variant LS52 (antibody, V domains shown)
VH: B14 VH with H57G
VL: B14 VL with S32H
notes: As m1 with one histidine substitution in the light chain
B16: IgG1-CD63 affinity variant Y127 (antibody, V domains shown)
VH: B14 VH with H57G, Y108H
VL: B14 VL
notes: as for B14
B17: IgG1-CD63 affinity variant LY51H (antibody, V domains shown)
VH: B14 VH with H57G
VL: B14 VL with Y31H
notes: as for B15
B18: IgG1-CD63 affinity variant Y79H (antibody, V domains shown)
VH: B14 VH with H57G, Y60H
VL: B14 VL
notes: as for B14
B19: IgG1-CD63 affinity variant Y121H (antibody, V domains shown)
VH: B14 VH with H57G, Y102H
VL: B14 VL
notes: as for B14
B20: IgG1-CD63 affinity variant Y46 (antibody, V domains shown)
VH: B14 VH with Y27H, H57G
VL: B14 VL
notes: as for B14
B21: anti-CD63-LN54H (antibody, V domains shown)
VH: B14 VH with H57G
VL: B14 VL with N34H
B22: IgG1-CD63 affinity variant P72H (antibody, V domains shown)
VH: B14 VH with P53H, H57G
VL: B14 VL
B23: IgG1-CD63 affinity variant LV49H (antibody, V domains shown)
VH: B14 VH with H57G
VL: B14 VL with V29H
notes: as for B15
B24: IgG1-CD63 affinity variant T71H (antibody, V domains shown)
VH: B14 VH with T52H, H57G
VL: B14 VL
B25: IgG1-CD63 affinity variant LQ47 (antibody, V domains shown)
VH: B14 VH with H57G
VL: B14 VL with Q27H
notes: as for B15

The target in the first experiment is CD63 on cells (human) (UniProt P08962). In words: cell-based or functional assay.
CD63 on cells (human), sequence (P08962 2-238): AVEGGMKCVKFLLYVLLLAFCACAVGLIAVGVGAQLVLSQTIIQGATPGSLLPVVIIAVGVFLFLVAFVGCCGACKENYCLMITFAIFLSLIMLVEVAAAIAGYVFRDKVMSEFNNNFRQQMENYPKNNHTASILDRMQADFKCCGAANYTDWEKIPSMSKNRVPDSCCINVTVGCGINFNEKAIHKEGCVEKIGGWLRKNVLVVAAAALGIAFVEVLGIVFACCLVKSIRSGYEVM
B1: the IC50 of cytotoxicity, Colo205 cells (CellTiter-GLO, 4 days) came out at 1.4 µg/mL; the IC50 of cytotoxicity, HCC1954 cells (CellTiter-GLO, 4 days) is 0.014 µg/mL; the IC50 of cytotoxicity, SK-OV-3 cells (CellTiter-GLO, 4 days) was found to be 0.028 µg/mL.
For B2, the IC50 of cytotoxicity, Colo205 cells (CellTiter-GLO, 4 days) turned out to be 10 µg/mL; the IC50 of cytotoxicity, HCC1954 cells (CellTiter-GLO, 4 days) is 10 µg/mL; the IC50 of cytotoxicity, SK-OV-3 cells (CellTiter-GLO, 4 days) is 5.46 µg/mL; the lysosomal co-localization with LAMP1 in SK-OV-3 cells (confocal microscopy, 16 hours) came to 10 fold lower.
For B3, the IC50 of cytotoxicity, Colo205 cells (CellTiter-GLO, 4 days) was determined as 1.69 µg/mL; the IC50 of cytotoxicity, HCC1954 cells (CellTiter-GLO, 4 days) turned out to be 0.013 µg/mL; the IC50 of cytotoxicity, SK-OV-3 cells (CellTiter-GLO, 4 days) amounted to 0.021 µg/mL.
The like results for B4 were, in that order, 10 µg/mL, 0.069 µg/mL and 0.207 µg/mL.
In the same order, the values of B5 are 1.42 µg/mL, 10 µg/mL and 3.06 µg/mL.
In the same order, the values of B6 are 10 µg/mL, 0.065 µg/mL and 0.314 µg/mL.
B7: the IC50 of cytotoxicity, Colo205 cells (CellTiter-GLO, 4 days) was 10 µg/mL; the IC50 of cytotoxicity, HCC1954 cells (CellTiter-GLO, 4 days) is 5.27 µg/mL; the IC50 of cytotoxicity, SK-OV-3 cells (CellTiter-GLO, 4 days) was found to be 4.52 µg/mL.
On to B8, for which the IC50 of cytotoxicity, Colo205 cells (CellTiter-GLO, 4 days) worked out at 1.35 µg/mL; the IC50 of cytotoxicity, HCC1954 cells (CellTiter-GLO, 4 days) was 0.017 µg/mL; the IC50 of cytotoxicity, SK-OV-3 cells (CellTiter-GLO, 4 days) was 0.037 µg/mL.
For the molecule B9, the IC50 of cytotoxicity, Colo205 cells (CellTiter-GLO, 4 days) was 3.93 µg/mL; the IC50 of cytotoxicity, HCC1954 cells (CellTiter-GLO, 4 days) turned out to be 1.35 µg/mL; the IC50 of cytotoxicity, SK-OV-3 cells (CellTiter-GLO, 4 days) was determined as 1.99 µg/mL.
In the same order, the values of B10 are 10 µg/mL, 1.65 µg/mL and 1.4 µg/mL.
The like results for B11 were, in that order, 10 µg/mL, 0.104 µg/mL and 0.351 µg/mL.
B12 yielded an IC50 of cytotoxicity, Colo205 cells (CellTiter-GLO, 4 days) of 10 µg/mL; an IC50 of cytotoxicity, HCC1954 cells (CellTiter-GLO, 4 days) of 0.073 µg/mL; an IC50 of cytotoxicity, SK-OV-3 cells (CellTiter-GLO, 4 days) of 0.259 µg/mL.
B13: the IC50 of cytotoxicity, Colo205 cells (CellTiter-GLO, 4 days) came to 10 µg/mL; the IC50 of cytotoxicity, HCC1954 cells (CellTiter-GLO, 4 days) was 1.55 µg/mL; the IC50 of cytotoxicity, SK-OV-3 cells (CellTiter-GLO, 4 days) worked out at 3.35 µg/mL; the lysosomal co-localization with LAMP1 in SK-OV-3 cells (confocal microscopy, 16 hours) was determined as 10 fold lower.

The next experiment concerns the target T1, recombinant human CD63 second …. Description: BLI (Octet HTX), IgG on anti-human Fc sensors, His-tagged CD63 as analyte, 30 C. How it is done: Association and dissociation kinetics of human His-tagged CD63 (100 nM, 50 nM, 25 nM and 12.5 nM, concentrations were calculated using the predicted molecular weight of 13 kDa) were determined in Sample Diluent (ForteBio), using an association time of 1000 s, a dissociation time of 2000 s and a shaker speed of 1000 rpm at 30° C. Data traces were corrected using a reference sensor exposed to Sample Diluent only during the association and dissociation steps, the Y-axis was aligned to baseline and Inter-step correction as well as Savitzky-Golay filtering were applied. The association rate constant Kₒₙ (1/Ms), dissociation rate constant Kdis (1/s) and equilibrium dissociation constant KD (M) were determined with ForteBio Data Analysis Software v8.1, using the 1:1 model and a global full fit.
(Biolayer interferometry detects binding as a change in optical thickness at a sensor tip.)
In the case of B14, the Kd was 17 nM, the koff came to 0.00038 s⁻¹ and the kon amounted to 22000 M⁻¹ s⁻¹.
As to B15, the Kd was determined as 0.36 nM, the koff came out at 6.3e-05 s⁻¹ and the kon came out at 170000 M⁻¹ s⁻¹.
For the molecule B16, the Kd is 0.54 nM, the koff stood at 0.00011 s⁻¹ and the kon turned out to be 200000 M⁻¹ s⁻¹.
In the same order, the values of B17 are 20 nM, 0.0019 s⁻¹ and 98000 M⁻¹ s⁻¹.
In the same order, the values of B18 are 0.67 nM, 0.00014 s⁻¹ and 210000 M⁻¹ s⁻¹.
In the same order, the values of B19 are 20 nM, 0.0014 s⁻¹ and 70000 M⁻¹ s⁻¹.
On to B20, for which the Kd worked out at 0.78 nM, the koff stood at 0.00016 s⁻¹ and the kon worked out at 200000 M⁻¹ s⁻¹.
In the same order, the values of B21 are 2 nM, 0.00039 s⁻¹ and 190000 M⁻¹ s⁻¹.
In the same order, the values of B22 are 3.3 nM, 0.00057 s⁻¹ and 170000 M⁻¹ s⁻¹.
For the molecule B23, the Kd amounted to 27 nM.
On to B24, for which the dissociation constant Kd was found to be 7.3 nM, the koff is 0.0011 s⁻¹ and the kon stood at 150000 M⁻¹ s⁻¹.
The like results for B25 were, in that order, 0.37 nM, 6.7e-05 s⁻¹ and 180000 M⁻¹ s⁻¹.

The term Kd denotes the constant that tells how readily two partners part at equilibrium. As usually defined, the koff is a measure of how fast the partners let go of each other. As a reminder, the kon is the rate constant with which the complex forms.
